# Test results taken from US20020037533A1 (University of California, published 2002).
# B1: Flag-tagged GPR10 (wild type) (receptor, UniProt P49683 1-370, looked up)
# chain: MASSTTRGPRVSDLFSGLPPAVTTPANQSAEASAGNGSVAGADAPAVTPFQSLQLVHQLKGLIVLLYSVVVVVGLVGNCLLVLVIARVRRLHNVTNFLIGNLALSDVLMCTACVPLTLAYAFEPRGWVFGGGLCHLVFFLQPVTVYVSVFTLTTIAVDRYVVLVHPLRRRISLRLSAYAVLAIWALSAVLALPAAVHTYHVELKPHDVRLCEEFWGSQERQRQLYAWGLLLVTYLLPLLVILLSYVRVSVKLRNRVVPGCVTQSQADWDRARRRRTFCLLVVIVVVFAVCWLPLHVFNLLRDLDPHAIDPYAFGLVQLLCHWLAMSSACYNPFIYAWLHDSFREELRKLLVAWPRKIAPHGQNMTVSVVI
# notes: whole, on cells; Expressed in HEK 293T or COS7 cells; immunoprecipitated from Triton lysates with anti-Flag M2; also called Flag GPR10 WT; PrRP receptor; not shown: Flag tag
# Target: T1, myc-tagged PSD95 (UniProt P31016 1-724)
# T1 construct: also called PSD-95 myc; PSD-95-myc; not shown: myc tag
# Test: co-immunoprecipitation from HEK 293T cells stably expressing Flag-tagged GPR10, transfected with myc-tagged PSD95
# Protocol: Forty-eight hours after transfection, cells were washed once in PBS and lysed with IP buffer (1% triton X-100, 25 mM Tris, pH 7.4, 50 mM NaCl, 5 mM EDTA, 5 mM EGTA, 0.1 mM phenylmethylsulphonyl fluoride (PMSF), aprotinin, leupeptin, and bacitracin). Immunoprecipitation was performed using 2 μg anti-Flag M2 antibody (Sigma) or 1 μg anti-myc antibody (Roche) followed by 25 μl protein G-agarose (Sigma). Immunoprecipitation was carried out overnight at 4° C. Immunoprecipitated proteins were resolved on SDS-PAGE, transferred to PVDF membrane. Western blotting was performed to detect GRIP using anti-GRIP antibody (1:1000). ABP-myc, PSD-95-myc, and PICK1-myc were detected using the monoclonal anti-myc antibody (1:500, Clontech).
# To determine whether GPR10 interacts specifically with AMPA receptor interacting proteins, myc-tagged ABP and myc-tagged PSD95 were transfected into cell lines expressing wild type and mutant Flag-tagged GPR10.
# T1 sequence (P31016 whole entry): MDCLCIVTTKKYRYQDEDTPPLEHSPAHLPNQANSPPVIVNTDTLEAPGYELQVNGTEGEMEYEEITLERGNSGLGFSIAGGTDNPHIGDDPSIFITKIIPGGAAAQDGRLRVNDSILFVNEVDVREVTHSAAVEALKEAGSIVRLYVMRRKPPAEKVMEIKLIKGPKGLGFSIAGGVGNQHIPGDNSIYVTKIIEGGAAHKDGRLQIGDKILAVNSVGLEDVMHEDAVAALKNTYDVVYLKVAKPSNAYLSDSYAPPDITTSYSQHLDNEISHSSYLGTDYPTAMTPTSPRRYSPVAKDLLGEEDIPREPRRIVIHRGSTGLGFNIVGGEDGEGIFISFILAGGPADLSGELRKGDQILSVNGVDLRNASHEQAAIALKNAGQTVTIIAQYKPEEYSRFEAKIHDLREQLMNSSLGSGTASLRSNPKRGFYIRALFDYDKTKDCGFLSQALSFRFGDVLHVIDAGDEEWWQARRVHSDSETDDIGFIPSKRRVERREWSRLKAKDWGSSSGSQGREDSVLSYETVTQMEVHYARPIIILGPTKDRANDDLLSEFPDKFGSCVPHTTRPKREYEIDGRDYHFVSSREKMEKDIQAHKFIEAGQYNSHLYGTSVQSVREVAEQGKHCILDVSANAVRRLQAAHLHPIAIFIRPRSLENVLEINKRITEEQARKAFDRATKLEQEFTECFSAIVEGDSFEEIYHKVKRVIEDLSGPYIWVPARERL
binder,measurement,value
B1,binding result,no binding
